According to patent US20070060518A1 (MANNKIND, published 2007):
Read-outs that look alike come from different tables or passages of the source. Each block holds one binder with its values, some of them ahead of it. Numbered stars: 1 amine (or outer) side, 2 acyl side, 3 side chain; on linkers, the order of the positions; unused ones are H or OH. Square brackets hold non-standard residues; d marks the D form. Ends that are not written are not given here. O‑methyltyrosine = COc1ccc(C[C@H](N[*:1])C(=O)[*:2])cc1; Phg = N[C@H](C(=O)O)c1ccccc1; Nle = CCCC[C@H](N)C(=O)O; Nva = CCC[C@H](N)C(=O)O

Key:
[1] = target: T1, HLA-A*0201 class I monomer on avidin-coated plates (iTopia Epitope Discovery System) (human); assay: iTopia off-rate assay
T1 construct: Bought kit (Beckman Coulter); also called A0201 restricted MHC Class 1 molecules; MHC monomer
Method: (§1) The plates were then incubated on the allele-specific monomer plates at 37° C. The plates were measured at multiple time points (0, 0.5, 1, 1.5, 2, 4, 6 and 8 hrs) for relative fluorescence intensity. The time required for 50% of the peptide to dissociate from the MHC monomer is defined as the T1/2 value (hrs).

HLA-A*0201 on T2 cells [2] = target: T2, HLA-A*0201 on T2 cells (human); assay: T2 cell binding assay, flow cytometry
T2 construct: whole, on cells; also called HLA-A2

HLA-A*0201 on T2 cells [3] = target: T2, HLA-A*0201 on T2 cells; assay: T2 cell stability assay, flow cytometry
HLA-A*0201 on T2 cells [4] = target: T2, HLA-A*0201 on T2 cells; assay: T2 cell binding assay, flow cytometry; remark: listed apart in the source
[5] = target: T1, HLA-A*0201 class I monomer on …; assay: iTopia affinity and off-rate assays (FIG. 19)
Method: (§2) Avidin-coated microtiter plates containing class I monomer loaded with a so-called placeholder peptide were used to evaluate peptide binding, affinity and off-rate. […] Assay buffers, anti-MHC-FITC mAb and beta2-microglobulin and control peptides were also supplied with the kits. Binding Assay:
as §1

[6] = target: T1, HLA-A*0201 class I monomer on …; assay: iTopia assays (FIG. 20)
[7] = target: T1, HLA-A*0201 class I monomer on …; assay: iTopia affinity and off-rate assays (FIG. 28)
Method: as §2, §1
(§3) In some cases, the reported values are the average of two determinations.

[8] = target: T1, HLA-A*0201 class I monomer on …; assay: iTopia assays (FIG. 21)
HLA-A*0201 on T2 cells [9] = target: T2, HLA-A*0201 on T2 cells; assay: T2 cell binding assay, flow cytometry; remark: listed apart in the source
HLA-A*0201 on T2 cells [10] = target: T2, HLA-A*0201 on T2 cells; assay: T2 cell stability assay, flow cytometry; remark: listed apart in the source
[11] = target: T1, HLA-A*0201 class I monomer on …; assay: iTopia affinity assay (FIG. 26)
From the text: as §2, §3

[12] = target: T1, HLA-A*0201 class I monomer on …; assay: iTopia binding assay (FIG. 26)
From the text: as §2
(§4) This assay measures the ability of individual peptides to bind HLA molecules under standardized optimal binding conditions. Monomer-coated plates were first stripped, releasing the placeholder peptide and leaving only the MHC heavy chain bound to the plate. Test peptides were then introduced under optimal folding conditions, along with the anti-MHC-FITC mAb. […] The anti-MHC-FITC mAb binds preferentially to a refolded MHC complex. Therefore, the fluorescence intensity resulting from each peptide was related to the peptide's ability to form complex with MHC molecule. Each peptide's binding was evaluated relative to the positive control peptide provided in the kit, and the results were expressed “% binding”.

[13] = target: T1, HLA-A*0201 class I monomer on …; assay: iTopia binding and affinity assays (FIG. 26)
From the text: as §2, §4

Binder: KISEKIFYV [SSX2 41-49 (A42I)]
EC50 (HLA-A*0201 on T2 cells [2]): 8.8 µM
Relative affinity (1/RA) (HLA-A*0201 on T2 cells [2]): 1.7
Stability (T1/2) (HLA-A*0201 on T2 cells [3]): 22.5 h

Binder: KASEKIFYI [SSX2 41-49 (V49I)]
Relative affinity (1/RA) (HLA-A*0201 on T2 cells [4]): 1

Binder: KLSEKIFYI [SSX2 41-49 (A42L, V49I)]
Relative affinity (1/RA) (HLA-A*0201 on T2 cells [4]): 2.6

Binder: KMSEKIFYV [SSX2 41-49 (A42M)]
EC50 (HLA-A*0201 on T2 cells [2]): 8.8 µM
Relative affinity (1/RA) (HLA-A*0201 on T2 cells [2]): 1.7
Stability (T1/2) (HLA-A*0201 on T2 cells [3]): 22.5 h

Binder: KVSEKIFYI [SSX2 41-49 (A42V, V49I)]
Relative affinity (1/RA) (HLA-A*0201 on T2 cells [4]): 1.1

Binder: GLPSIPVHPX (norvaline (Nva) at PΩ (P10), also called I297Nva) [PSMA288-297 analog with Nva at PΩ]
binding result [5]: binds

B1: Prame 425-433 (L426Nva, L433Nle) (peptide)
peptide: S[Nva]LQHLIG[Nle]
notes: also called S{Nva}LQHLIG{Nle}; L426Nva L433Nle analog
Half-Life (T1/2) [1]: 16.9 h

Binder: S[Nva]LMWITQV (also called SNvaLMWITQV) [NY-ESO-1 157-165 (L158Nva, C165V)]
Half-Life (T1/2) [1]: 17 h

Binder: YMDGTMSQV [Tyrosinase 369-377]
Half-Life (T1/2) [1]: 14.4 h

Binder: [O‑methyltyrosine]ASEKIFYV [SSX2 41-49 (K41(O-methyl Tyr))]
EC50 (HLA-A*0201 on T2 cells [9]): 19.5 µM
Relative affinity (1/RA) (HLA-A*0201 on T2 cells [9]): 0.8
Stability (T1/2) (HLA-A*0201 on T2 cells [10]): 20 h

Binder: [Phg]ASEKIFYV [SSX2 41-49 (K41(Phg))]
EC50 (HLA-A*0201 on T2 cells [9]): 5.83 µM
Relative affinity (1/RA) (HLA-A*0201 on T2 cells [9]): 2.5
Stability (T1/2) (HLA-A*0201 on T2 cells [10]): > 24 h

Binder: SLLQHLIGA [PRAME425-433 analog with Ala at PΩ]
fold change of ED50 against the native peptide [11]: > 10 fold

Binder: KLLQHLIGL (also called Lys P1 analog) [PRAME425-433 analog with Lys at P1]
fold change of ED50 against the native peptide [11]: ~6 fold

Results, then the binder that gave them:

Half-Life (T1/2) [1]: 14.7 h
Binder: YMDGTMSQX (norvaline (Nva) at position 377 (P9)) [Tyrosinase 369-377 (V377Nva)]

binding result [6]: binds
Binder: GLWSIPVHP[Nva] [PSMA288-297 analog with Trp at P3 and Nva at PΩ]

binding result [7]: binds
Binder: T[Nva]LQHLIG[Nle] (also called T{Nva}LQHLIG{Nle}) [PRAME425-433 S425T L426Nva L433Nle analog]

binding result [5]: binds
Binder: GMPSIPVHPI [PSMA288-297 analog with Met at P2]

binding result [6]: binds
Binder: GLWSIPVHPV [PSMA288-297 analog with Trp at P3 and Val at PΩ]

binding result [8]: binds
Binder: G[Nva]WSIPVHPV [PSMA288-297 Nva/W/V analog (Nva at P2, Trp at P3, Val at PΩ)]

binding result [12]: binds
Binder: SVLQHLIGL [PRAME425-433 analog with Val at P2]

binding result [13]: binds
Binder: SILQHLIGL [PRAME425-433 analog with Ile at P2]

binding result [12]: binds
Binder: SLLQHLIGI [PRAME425-433 analog with Ile at PΩ]

binding result [13]: binds
Binder: YLLQHLIGL [PRAME425-433 analog with Tyr at P1]

binding result [12]: binds
Binder: SLLQHLIGV [PRAME425-433 analog with Val at PΩ]

binding result [13]: binds
Binder: SMLQHLIGL [PRAME425-433 analog with Met at P2]

binding result [13]: binds
Binder: TLLQHLIGL [PRAME425-433 analog with Thr at P1]
